From paper PMC8041205
pKd: −log10 of the molar value.

Legend:
[1] = molecular target: commercially available recombinant MyD88 (UniProt Q99836); experiment: ITC; 1 uM rTcpC in PBS in the titration pool, 0.1 uM UBE2D1 or rMyD88 in PBS in the sample pool; VP-ITC microcalorimeter
[2] = molecular target: BSA; experiment: SPR; settings: natural protein

recombinant TcpC (Toll/interleukin-1 receptor domain-containing protein encoded by E. coli) (from UniProt A0A0H2V8B5 1-307), sequence (A0A0H2V8B5 whole entry, the tested form may be a part): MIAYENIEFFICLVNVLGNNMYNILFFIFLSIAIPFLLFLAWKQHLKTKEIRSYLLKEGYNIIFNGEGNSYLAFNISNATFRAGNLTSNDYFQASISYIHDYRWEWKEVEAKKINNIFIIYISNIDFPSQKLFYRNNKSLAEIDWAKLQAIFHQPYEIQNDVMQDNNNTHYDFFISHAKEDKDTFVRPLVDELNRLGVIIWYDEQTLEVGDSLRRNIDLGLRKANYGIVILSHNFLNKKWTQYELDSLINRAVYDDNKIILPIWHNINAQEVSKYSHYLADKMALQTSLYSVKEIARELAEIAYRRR
recombinant TcpC (Toll/interleukin-1 receptor domain-containing protein encoded by E. coli) (from UniProt A0A0H2V8B5 1-307) (natural protein; other documents disagree on this pair), sequence (A0A0H2V8B5 whole entry, the tested form may be a part): as above
commercially available recombinant MyD88, sequence (Q99836 whole entry): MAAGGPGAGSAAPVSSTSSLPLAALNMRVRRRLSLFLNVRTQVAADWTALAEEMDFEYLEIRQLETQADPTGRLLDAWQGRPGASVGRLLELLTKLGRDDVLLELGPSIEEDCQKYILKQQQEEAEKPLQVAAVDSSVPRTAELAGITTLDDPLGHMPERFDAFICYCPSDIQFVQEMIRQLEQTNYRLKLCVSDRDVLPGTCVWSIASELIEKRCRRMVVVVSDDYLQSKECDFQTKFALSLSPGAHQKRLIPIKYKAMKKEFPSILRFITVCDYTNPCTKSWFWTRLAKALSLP

Substance	pKd [1]	pKd [2]
recombinant TcpC (Toll/interleukin-1 receptor domain-containing protein encoded by E. coli) (from UniProt A0A0H2V8B5 1-307) (natural protein; other documents disagree on this pair)	6.27	
recombinant TcpC (Toll/interleukin-1 receptor domain-containing protein encoded by E. coli) (from UniProt A0A0H2V8B5 1-307)		< 2.00
